Reference: patent US20220298218A1 (ANTAG THERAPEUTICS, published 2022)
Where no end group is shown, it is not given here. The star is where a group is joined. C16 diacid = O=C(O)CCCCCCCCCCCCCCC(=O)*

B1: AT618 (peptide)
peptide: EGTFISDYSIALDKIK(C16 diacid)QQDFVNWLLAQKPSSGAPPPS-OH
modifications: N-terminus assumed
SMILES: CC[C@H](C)[C@H](NC(=O)[C@H](CO)NC(=O)[C@H](Cc1ccc(O)cc1)NC(=O)[C@H](CC(=O)O)NC(=O)[C@H](CO)NC(=O)[C@@H](NC(=O)[C@H](Cc1ccccc1)NC(=O)[C@@H](NC(=O)CNC(=O)[C@@H](N)CCC(=O)O)[C@@H](C)O)[C@@H](C)CC)C(=O)N[C@@H](C)C(=O)N[C@@H](CC(C)C)C(=O)N[C@@H](CC(=O)O)C(=O)N[C@@H](CCCCN)C(=O)N[C@H](C(=O)N[C@@H](CCCCNC(=O)CCCCCCCCCCCCCCC(=O)O)C(=O)N[C@@H](CCC(N)=O)C(=O)N[C@@H](CCC(N)=O)C(=O)N[C@@H](CC(=O)O)C(=O)N[C@@H](Cc1ccccc1)C(=O)N[C@H](C(=O)N[C@@H](CC(N)=O)C(=O)N[C@@H](Cc1c[nH]c2ccccc12)C(=O)N[C@@H](CC(C)C)C(=O)N[C@@H](CC(C)C)C(=O)N[C@@H](C)C(=O)N[C@@H](CCC(N)=O)C(=O)N[C@@H](CCCCN)C(=O)N1CCC[C@H]1C(=O)N[C@@H](CO)C(=O)N[C@@H](CO)C(=O)NCC(=O)N[C@@H](C)C(=O)N1CCC[C@H]1C(=O)N1CCC[C@H]1C(=O)N1CCC[C@H]1C(=O)N[C@@H](CO)C(=O)O)C(C)C)[C@@H](C)CC
B2: AT622 (peptide)
peptide: EGTFISDYSIASDKIK(C16 diacid)QQDFVNWLLAQKPSSGAPPPS-OH
modifications: N-terminus assumed
SMILES: CC[C@H](C)[C@H](NC(=O)[C@H](CO)NC(=O)[C@H](Cc1ccc(O)cc1)NC(=O)[C@H](CC(=O)O)NC(=O)[C@H](CO)NC(=O)[C@@H](NC(=O)[C@H](Cc1ccccc1)NC(=O)[C@@H](NC(=O)CNC(=O)[C@@H](N)CCC(=O)O)[C@@H](C)O)[C@@H](C)CC)C(=O)N[C@@H](C)C(=O)N[C@@H](CO)C(=O)N[C@@H](CC(=O)O)C(=O)N[C@@H](CCCCN)C(=O)N[C@H](C(=O)N[C@@H](CCCCNC(=O)CCCCCCCCCCCCCCC(=O)O)C(=O)N[C@@H](CCC(N)=O)C(=O)N[C@@H](CCC(N)=O)C(=O)N[C@@H](CC(=O)O)C(=O)N[C@@H](Cc1ccccc1)C(=O)N[C@H](C(=O)N[C@@H](CC(N)=O)C(=O)N[C@@H](Cc1c[nH]c2ccccc12)C(=O)N[C@@H](CC(C)C)C(=O)N[C@@H](CC(C)C)C(=O)N[C@@H](C)C(=O)N[C@@H](CCC(N)=O)C(=O)N[C@@H](CCCCN)C(=O)N1CCC[C@H]1C(=O)N[C@@H](CO)C(=O)N[C@@H](CO)C(=O)NCC(=O)N[C@@H](C)C(=O)N1CCC[C@H]1C(=O)N1CCC[C@H]1C(=O)N1CCC[C@H]1C(=O)N[C@@H](CO)C(=O)O)C(C)C)[C@@H](C)CC
B3: AT624 (peptide)
peptide: EGTFISDYSIAMDKIK(C16 diacid)QQDFVNWLEAQKPSSGAPPPS-OH
modifications: N-terminus assumed
SMILES: CC[C@H](C)[C@H](NC(=O)[C@H](CO)NC(=O)[C@H](Cc1ccc(O)cc1)NC(=O)[C@H](CC(=O)O)NC(=O)[C@H](CO)NC(=O)[C@@H](NC(=O)[C@H](Cc1ccccc1)NC(=O)[C@@H](NC(=O)CNC(=O)[C@@H](N)CCC(=O)O)[C@@H](C)O)[C@@H](C)CC)C(=O)N[C@@H](C)C(=O)N[C@@H](CCSC)C(=O)N[C@@H](CC(=O)O)C(=O)N[C@@H](CCCCN)C(=O)N[C@H](C(=O)N[C@@H](CCCCNC(=O)CCCCCCCCCCCCCCC(=O)O)C(=O)N[C@@H](CCC(N)=O)C(=O)N[C@@H](CCC(N)=O)C(=O)N[C@@H](CC(=O)O)C(=O)N[C@@H](Cc1ccccc1)C(=O)N[C@H](C(=O)N[C@@H](CC(N)=O)C(=O)N[C@@H](Cc1c[nH]c2ccccc12)C(=O)N[C@@H](CC(C)C)C(=O)N[C@@H](CCC(=O)O)C(=O)N[C@@H](C)C(=O)N[C@@H](CCC(N)=O)C(=O)N[C@@H](CCCCN)C(=O)N1CCC[C@H]1C(=O)N[C@@H](CO)C(=O)N[C@@H](CO)C(=O)NCC(=O)N[C@@H](C)C(=O)N1CCC[C@H]1C(=O)N1CCC[C@H]1C(=O)N1CCC[C@H]1C(=O)N[C@@H](CO)C(=O)O)C(C)C)[C@@H](C)CC
B4: AT623 (peptide)
peptide: EGTFISDYSIAMDKIK(C16 diacid)QQDFVEWLLAQAPSSGAPPPS-OH
modifications: N-terminus assumed
SMILES: CC[C@H](C)[C@H](NC(=O)[C@H](CO)NC(=O)[C@H](Cc1ccc(O)cc1)NC(=O)[C@H](CC(=O)O)NC(=O)[C@H](CO)NC(=O)[C@@H](NC(=O)[C@H](Cc1ccccc1)NC(=O)[C@@H](NC(=O)CNC(=O)[C@@H](N)CCC(=O)O)[C@@H](C)O)[C@@H](C)CC)C(=O)N[C@@H](C)C(=O)N[C@@H](CCSC)C(=O)N[C@@H](CC(=O)O)C(=O)N[C@@H](CCCCN)C(=O)N[C@H](C(=O)N[C@@H](CCCCNC(=O)CCCCCCCCCCCCCCC(=O)O)C(=O)N[C@@H](CCC(N)=O)C(=O)N[C@@H](CCC(N)=O)C(=O)N[C@@H](CC(=O)O)C(=O)N[C@@H](Cc1ccccc1)C(=O)N[C@H](C(=O)N[C@@H](CCC(=O)O)C(=O)N[C@@H](Cc1c[nH]c2ccccc12)C(=O)N[C@@H](CC(C)C)C(=O)N[C@@H](CC(C)C)C(=O)N[C@@H](C)C(=O)N[C@@H](CCC(N)=O)C(=O)N[C@@H](C)C(=O)N1CCC[C@H]1C(=O)N[C@@H](CO)C(=O)N[C@@H](CO)C(=O)NCC(=O)N[C@@H](C)C(=O)N1CCC[C@H]1C(=O)N1CCC[C@H]1C(=O)N1CCC[C@H]1C(=O)N[C@@H](CO)C(=O)O)C(C)C)[C@@H](C)CC
B5: AT621 (peptide)
peptide: EGTFISDYSIAKDKIK(C16 diacid)QQDFVNWLLAQKPSSGAPPPS-OH
modifications: N-terminus assumed
SMILES: CC[C@H](C)[C@H](NC(=O)[C@H](CO)NC(=O)[C@H](Cc1ccc(O)cc1)NC(=O)[C@H](CC(=O)O)NC(=O)[C@H](CO)NC(=O)[C@@H](NC(=O)[C@H](Cc1ccccc1)NC(=O)[C@@H](NC(=O)CNC(=O)[C@@H](N)CCC(=O)O)[C@@H](C)O)[C@@H](C)CC)C(=O)N[C@@H](C)C(=O)N[C@@H](CCCCN)C(=O)N[C@@H](CC(=O)O)C(=O)N[C@@H](CCCCN)C(=O)N[C@H](C(=O)N[C@@H](CCCCNC(=O)CCCCCCCCCCCCCCC(=O)O)C(=O)N[C@@H](CCC(N)=O)C(=O)N[C@@H](CCC(N)=O)C(=O)N[C@@H](CC(=O)O)C(=O)N[C@@H](Cc1ccccc1)C(=O)N[C@H](C(=O)N[C@@H](CC(N)=O)C(=O)N[C@@H](Cc1c[nH]c2ccccc12)C(=O)N[C@@H](CC(C)C)C(=O)N[C@@H](CC(C)C)C(=O)N[C@@H](C)C(=O)N[C@@H](CCC(N)=O)C(=O)N[C@@H](CCCCN)C(=O)N1CCC[C@H]1C(=O)N[C@@H](CO)C(=O)N[C@@H](CO)C(=O)NCC(=O)N[C@@H](C)C(=O)N1CCC[C@H]1C(=O)N1CCC[C@H]1C(=O)N1CCC[C@H]1C(=O)N[C@@H](CO)C(=O)O)C(C)C)[C@@H](C)CC
B6: AT620 (peptide)
peptide: EGTFISDYSIAEDKIK(C16 diacid)QQDFVNWLLAQKPSSGAPPPS-OH
modifications: N-terminus assumed
SMILES: CC[C@H](C)[C@H](NC(=O)[C@H](CO)NC(=O)[C@H](Cc1ccc(O)cc1)NC(=O)[C@H](CC(=O)O)NC(=O)[C@H](CO)NC(=O)[C@@H](NC(=O)[C@H](Cc1ccccc1)NC(=O)[C@@H](NC(=O)CNC(=O)[C@@H](N)CCC(=O)O)[C@@H](C)O)[C@@H](C)CC)C(=O)N[C@@H](C)C(=O)N[C@@H](CCC(=O)O)C(=O)N[C@@H](CC(=O)O)C(=O)N[C@@H](CCCCN)C(=O)N[C@H](C(=O)N[C@@H](CCCCNC(=O)CCCCCCCCCCCCCCC(=O)O)C(=O)N[C@@H](CCC(N)=O)C(=O)N[C@@H](CCC(N)=O)C(=O)N[C@@H](CC(=O)O)C(=O)N[C@@H](Cc1ccccc1)C(=O)N[C@H](C(=O)N[C@@H](CC(N)=O)C(=O)N[C@@H](Cc1c[nH]c2ccccc12)C(=O)N[C@@H](CC(C)C)C(=O)N[C@@H](CC(C)C)C(=O)N[C@@H](C)C(=O)N[C@@H](CCC(N)=O)C(=O)N[C@@H](CCCCN)C(=O)N1CCC[C@H]1C(=O)N[C@@H](CO)C(=O)N[C@@H](CO)C(=O)NCC(=O)N[C@@H](C)C(=O)N1CCC[C@H]1C(=O)N1CCC[C@H]1C(=O)N1CCC[C@H]1C(=O)N[C@@H](CO)C(=O)O)C(C)C)[C@@H](C)CC

Target: T1, human GIP receptor (human, UniProt P48546 22-466)
T1 sequence (looked up): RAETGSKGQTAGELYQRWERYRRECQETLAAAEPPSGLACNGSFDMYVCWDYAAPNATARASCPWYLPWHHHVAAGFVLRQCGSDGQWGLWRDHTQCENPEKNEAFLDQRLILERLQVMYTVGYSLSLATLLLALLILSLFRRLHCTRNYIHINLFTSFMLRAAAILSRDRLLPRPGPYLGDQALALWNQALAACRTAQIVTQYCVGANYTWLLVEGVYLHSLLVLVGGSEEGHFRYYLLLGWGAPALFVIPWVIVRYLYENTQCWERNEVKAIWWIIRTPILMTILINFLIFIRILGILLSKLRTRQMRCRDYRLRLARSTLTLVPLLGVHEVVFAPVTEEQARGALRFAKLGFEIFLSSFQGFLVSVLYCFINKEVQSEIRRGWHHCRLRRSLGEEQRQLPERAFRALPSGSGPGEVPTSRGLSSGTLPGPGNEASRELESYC
Assay: cell-based or functional assay

Binder	cAMP agonism % Emax [%]	cAMP antagonism [nM]	cAMP antagonism % inhib [%]	cAMP antagonism pIC50
B1	0	3.98	82	8.4
B2	14	31.6	77	7.5
B3	0	100	~90	~7
B4	0	3.16	98	8.5
EGTFISDYSIALDKIKQQDFVNWLLAQKPSSGAPPPS (Nle at 14; K18: C16-diacid; C-term COOH) [AT619]	0	2.19	87	8.7
B5	0	1.36	93	8.9
B6	0	31.6	83	7.5
